Experiment [1] has as its target T1, recombinant rat VISTA (His-tagged) (rat, UniProt A0ABK0L5H3 33-192).
T1 sequence: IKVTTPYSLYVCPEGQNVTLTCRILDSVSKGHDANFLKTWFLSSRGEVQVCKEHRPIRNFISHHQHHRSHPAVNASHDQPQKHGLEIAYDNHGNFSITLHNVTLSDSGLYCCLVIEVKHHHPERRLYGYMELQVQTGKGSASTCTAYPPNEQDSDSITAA
Briefly: ELISA, plate coated with rat VISTA.

Experiment [2] concerns the target T2, recombinant cynomolgus macaque VISTA (His-tagged) (cynomolgus macaque, UniProt A0A7N9IB00 33-194).
T2 construct: also called cyno VISTA; cynomolgus monkey VISTA
The experiment can be described thus: ELISA, plate coated with cyno VISTA.

Experiment [3] addresses T3, recombinant human VISTA (His-tagged) (human, UniProt Q9H7M9 33-194).
T3 construct: bought soluble protein (Sino Biological); also called hVISTA; human VISTA polypeptide
Briefly: ELISA, plate coated with human VISTA.

In another experiment the target is human PD-1 (human, UniProt Q15116 25-167). The experiment can be described thus: ELISA, plate coated with the antigen.
human PD-1, sequence (Q15116 25-167 limits assumed): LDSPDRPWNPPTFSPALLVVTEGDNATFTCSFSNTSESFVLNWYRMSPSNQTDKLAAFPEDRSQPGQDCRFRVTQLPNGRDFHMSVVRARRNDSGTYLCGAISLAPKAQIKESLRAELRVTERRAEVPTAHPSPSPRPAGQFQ
Another experiment addresses T4, human B7H3 (human, UniProt Q5ZPR3 29-461, limits assumed).
T4 construct: also called CD276
T4 sequence (looked up): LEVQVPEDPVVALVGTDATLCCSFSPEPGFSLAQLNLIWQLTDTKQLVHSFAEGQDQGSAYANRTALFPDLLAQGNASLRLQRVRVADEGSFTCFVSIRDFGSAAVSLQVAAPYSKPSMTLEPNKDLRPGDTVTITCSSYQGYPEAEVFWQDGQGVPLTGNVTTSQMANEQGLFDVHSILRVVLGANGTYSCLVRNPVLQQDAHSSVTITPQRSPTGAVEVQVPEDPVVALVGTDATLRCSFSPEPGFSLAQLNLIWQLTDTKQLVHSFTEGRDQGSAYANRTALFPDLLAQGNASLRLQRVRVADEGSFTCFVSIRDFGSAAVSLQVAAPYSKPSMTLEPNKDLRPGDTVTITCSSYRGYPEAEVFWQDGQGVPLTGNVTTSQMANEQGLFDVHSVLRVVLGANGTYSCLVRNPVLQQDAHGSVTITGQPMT
The experiment can be described thus: ELISA, plate coated with the antigen.

In another experiment the target is T5, human B7H4 (human, UniProt Q7Z7D3 25-258, limits assumed).
T5 construct: also called VTCN1
T5 sequence (looked up): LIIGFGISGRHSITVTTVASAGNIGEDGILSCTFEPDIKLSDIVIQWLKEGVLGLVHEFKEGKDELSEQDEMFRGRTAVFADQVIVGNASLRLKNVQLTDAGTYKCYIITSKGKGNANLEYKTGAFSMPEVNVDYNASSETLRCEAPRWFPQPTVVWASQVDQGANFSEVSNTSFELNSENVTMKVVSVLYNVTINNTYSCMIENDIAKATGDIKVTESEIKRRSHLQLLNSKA
Briefly: ELISA, plate coated with the antigen.

For a further experiment, the target named is T6, human B7H6 (human, UniProt Q68D85 25-262).
T6 construct: also called NCR3LG1
T6 sequence (looked up): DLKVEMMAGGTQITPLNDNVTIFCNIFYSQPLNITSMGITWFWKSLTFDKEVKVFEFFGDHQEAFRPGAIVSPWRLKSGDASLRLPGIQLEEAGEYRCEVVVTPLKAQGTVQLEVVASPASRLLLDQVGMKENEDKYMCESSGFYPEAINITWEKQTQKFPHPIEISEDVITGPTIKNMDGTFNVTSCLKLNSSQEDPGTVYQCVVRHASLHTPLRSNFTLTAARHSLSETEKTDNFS
The experiment can be described thus: ELISA, plate coated with the antigen.

For another experiment, the target named is T7, human B7H7 (human, UniProt Q9UM44 23-344).
T7 construct: also called HHLA2
T7 sequence (looked up): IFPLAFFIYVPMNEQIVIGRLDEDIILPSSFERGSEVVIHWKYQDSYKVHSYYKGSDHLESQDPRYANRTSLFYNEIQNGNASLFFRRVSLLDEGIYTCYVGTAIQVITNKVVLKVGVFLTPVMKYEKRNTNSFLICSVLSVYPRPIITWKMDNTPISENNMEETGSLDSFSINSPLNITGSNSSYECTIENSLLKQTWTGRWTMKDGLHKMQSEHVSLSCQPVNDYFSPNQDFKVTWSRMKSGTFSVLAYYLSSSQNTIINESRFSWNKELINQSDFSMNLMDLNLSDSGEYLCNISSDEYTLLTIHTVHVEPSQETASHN
The experiment can be described thus: ELISA, plate coated with the antigen.

Another experiment concerns the target human CTLA4 (human, UniProt P16410 36-162). The experiment can be described thus: ELISA, plate coated with the antigen.
Experiment [4] concerns the target T3, recombinant human VISTA (His-tagged). The experiment can be described thus: ELISA, plate coated with human VISTA. This is another data set of the same source.
Experiment [5] has as its target T8, recombinant mouse VISTA (His-tagged) (mouse, UniProt Q9D659 33-191).
T8 construct: also called murine VISTA; mVISTA
T8 sequence (looked up): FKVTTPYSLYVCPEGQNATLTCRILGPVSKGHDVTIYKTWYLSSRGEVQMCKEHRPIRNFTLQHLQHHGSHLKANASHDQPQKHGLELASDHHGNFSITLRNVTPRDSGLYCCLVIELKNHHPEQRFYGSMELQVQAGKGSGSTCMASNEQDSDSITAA
The experiment can be described thus: ELISA, plate coated with mouse VISTA.

The target of experiment [6] is T3, recombinant human VISTA (His-tagged). Briefly: BLI (Octet), 1:1 global fit, His-tagged human VISTA captured.
In experiment [7] the target is T8, recombinant mouse VISTA (His-tagged). Briefly: BLI (Octet), 1:1 global fit, His-tagged mouse VISTA captured.
The target is the same in experiment [8]. The experiment is described as above. The source holds these as a separate data set.
Experiment [9] deals with T3, recombinant human VISTA (His-tagged). The experiment can be described thus: ELISA, plate coated with human VISTA; unit nM from the legend paragraph 697.
Experiment [10] concerns the target T8, recombinant mouse VISTA (His-tagged). The experiment can be described thus: ELISA, plate coated with mouse VISTA; unit nM from the legend paragraph 697.
Experiment [11] deals with T3, recombinant human VISTA (His-tagged). Briefly: ELISA, plate coated with human VISTA; unit nM from the legend paragraph 698.
Experiment [12] has as its target T8, recombinant mouse VISTA (His-tagged). Briefly: ELISA, plate coated with mouse VISTA; unit nM from the legend paragraph 698.
The next experiment concerns the target T9, human PD-L1 (human, UniProt Q9NZQ7 19-239).
T9 construct: captured through a His tag in the BLI experiments; also called hPD-L1; B7H1/PDL-1
The experiment can be described thus: BLI (Octet), His-tagged human PD-L1 on anti-Penta-HIS biosensor, antibody 500-15.6 nM.

Experiment [13] has as its target T10, mouse VISTA expressed on cells (mouse, UniProt Q9D659 33-308).
T10 construct: whole, on cells; also called murine VISTA on transfected cells; VISTA on mouse CD11b+ myeloid cells
T10 sequence (looked up): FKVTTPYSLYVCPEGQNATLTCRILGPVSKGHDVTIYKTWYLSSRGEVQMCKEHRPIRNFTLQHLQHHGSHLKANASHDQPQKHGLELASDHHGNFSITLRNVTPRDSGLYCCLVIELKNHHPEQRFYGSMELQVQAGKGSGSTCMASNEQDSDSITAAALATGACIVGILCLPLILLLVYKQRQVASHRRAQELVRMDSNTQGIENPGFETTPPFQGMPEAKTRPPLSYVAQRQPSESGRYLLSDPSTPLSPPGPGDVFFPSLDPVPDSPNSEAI
Briefly: flow cytometry on cells transfected with murine VISTA.

Where two headings read alike, the source gives them in different places.

human CTLA4, sequence (P16410 36-162 limits assumed): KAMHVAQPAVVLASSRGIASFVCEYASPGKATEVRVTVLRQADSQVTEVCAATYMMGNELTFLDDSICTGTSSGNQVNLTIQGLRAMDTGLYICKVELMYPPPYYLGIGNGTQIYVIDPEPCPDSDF
T9 sequence (Q9NZQ7 19-239 limits assumed): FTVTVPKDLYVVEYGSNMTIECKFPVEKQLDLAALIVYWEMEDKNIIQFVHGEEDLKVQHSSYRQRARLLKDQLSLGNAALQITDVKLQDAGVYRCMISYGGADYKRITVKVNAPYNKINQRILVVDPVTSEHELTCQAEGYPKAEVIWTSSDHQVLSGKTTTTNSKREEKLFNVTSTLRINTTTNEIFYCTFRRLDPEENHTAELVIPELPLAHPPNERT
Protocol for human PD-L1: Finally, the biosensors were incubated for 120 sec in PBS pH 7.2 to obtain the dissociation curves. Kinetic and affinity constants were calculated by global fitting of the association and dissociation data to a 1:1 binding model.

B1: anti-VISTA clone V4-C31 IgG1 (antibody, V domains shown)
VH: QVQLQESGPGLVKPSDTLSLTCTVSGYSITSDYTWNWIRQTPGKGLEWIGHITYSGSVSYNPSLRSRVTISRDTSKNQFSLKLSSVTAADTATYSCARALYYPWYFDVWGTGTTVTVSS
VL: EIVLTQSPATLSLSPGERATLSCRASSSVGYIHWYQQKPGQAPRPLIYATYYRTTGIPARFSGSGSGTDNTLTISSLEPEDSAVYYCQQWSSYPPITFGGGTKLEVKR
Consider B1, for which the concentration for a half-maximal effect (EC50) turned out to be 0.224 nM in experiment [1]; 0.0321 nM in experiment [2]; 0.0408 nM in [4]; 0.04 nM in [5]; 3.2 pM in [9]; 3 pM in [10]. The half-maximal effective concentration (EC50) came to 0.02 nM in [11] and 0.028 nM in experiment [12]. Also, the “EC50 (read off the curve)” value in experiment [3] is approximately 20 pM. The binding result with human PD-1, with human B7H3, with human B7H4, in the experiment with human B7H6, with human B7H7 and in the experiment with human CTLA4 was “no binding (tested: log -7.5 M)” each time. Further, the binding result with human PD-L1 is “no binding (tested: 500 nM)”. The dissociation constant Kd in experiment [6], in experiment [7] and in experiment [8] was less than 1 pM throughout. Also, the off-rate constant (koff) in experiment [6], in [7] and in experiment [8] was less than 1e-07 s⁻¹ in each case. Also, the on-rate constant (kon) in [6] turned out to be 623000 M⁻¹ s⁻¹; in experiment [7], 570000 M⁻¹ s⁻¹; in [8], 344000 M⁻¹ s⁻¹.

B2: anti-VISTA clone 13D5p IgG1 (antibody, V domains shown)
VH: QVQLQQSGAELVRPGTSVKISCKASGYTFTNYWLGWVKQRPGHGLEWIGDIYPGGGYTNYNEKFKGKATLTADTSSSTAYMQLSSLTSEDSAVYFCARGGYYYGSSWYFDVWGAGTTVTVSS
VL: DVLMTQTPLSLPVSLGDQASISCRSSQSIVHSNGNTYLEWYLQKPGQSPKLLIYKVSNRFSGVPDRFSGSGSGTDFTLKISRVEAEDLGVYYCFQGSHVPPTFGGGTKLEIKR
In the case of B2, the binding result in [13] was “binds”.

Source of the values: US20250313631A1 (HUMMINGBIRD BIOSCIENCE PTE, published 2025).
